# Laboratory results published in paper PMC2190426.
# Like-named read-outs stand apart in the source and are kept apart here.
# Columns and labels:
# [1] = target: cell-bound C3b on sheep erythrocytes (EAC4b,3b, called EC3b) (human) (UniProt P01024); experiment: radioligand binding
# [2] = target: cell-bound C3b on sheep erythrocytes (EAC4b,3b, called EC3b) (human) (UniProt P01024); experiment: radioligand binding; remark: listed apart in the source
# Sequence of UniProt P01024 (P01024 23-667, chain 1 of 2): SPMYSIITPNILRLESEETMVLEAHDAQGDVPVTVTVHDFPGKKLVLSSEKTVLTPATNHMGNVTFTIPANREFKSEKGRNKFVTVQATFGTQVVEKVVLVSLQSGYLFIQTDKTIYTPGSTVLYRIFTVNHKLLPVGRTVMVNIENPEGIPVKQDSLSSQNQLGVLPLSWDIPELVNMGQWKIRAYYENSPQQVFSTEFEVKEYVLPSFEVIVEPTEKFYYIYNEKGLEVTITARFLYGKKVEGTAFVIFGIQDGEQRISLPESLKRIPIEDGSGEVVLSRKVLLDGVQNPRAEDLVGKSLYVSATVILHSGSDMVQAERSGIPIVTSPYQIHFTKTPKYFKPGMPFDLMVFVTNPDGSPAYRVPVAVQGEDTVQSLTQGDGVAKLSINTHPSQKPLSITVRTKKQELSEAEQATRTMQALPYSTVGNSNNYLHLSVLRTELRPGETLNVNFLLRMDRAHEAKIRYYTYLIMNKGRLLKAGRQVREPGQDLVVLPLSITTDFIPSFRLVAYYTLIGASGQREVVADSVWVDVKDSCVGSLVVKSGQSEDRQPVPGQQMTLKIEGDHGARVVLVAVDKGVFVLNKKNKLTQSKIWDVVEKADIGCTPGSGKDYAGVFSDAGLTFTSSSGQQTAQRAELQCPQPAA
# Sequence of UniProt P01024 (P01024 749-1663, chain 2 of 2): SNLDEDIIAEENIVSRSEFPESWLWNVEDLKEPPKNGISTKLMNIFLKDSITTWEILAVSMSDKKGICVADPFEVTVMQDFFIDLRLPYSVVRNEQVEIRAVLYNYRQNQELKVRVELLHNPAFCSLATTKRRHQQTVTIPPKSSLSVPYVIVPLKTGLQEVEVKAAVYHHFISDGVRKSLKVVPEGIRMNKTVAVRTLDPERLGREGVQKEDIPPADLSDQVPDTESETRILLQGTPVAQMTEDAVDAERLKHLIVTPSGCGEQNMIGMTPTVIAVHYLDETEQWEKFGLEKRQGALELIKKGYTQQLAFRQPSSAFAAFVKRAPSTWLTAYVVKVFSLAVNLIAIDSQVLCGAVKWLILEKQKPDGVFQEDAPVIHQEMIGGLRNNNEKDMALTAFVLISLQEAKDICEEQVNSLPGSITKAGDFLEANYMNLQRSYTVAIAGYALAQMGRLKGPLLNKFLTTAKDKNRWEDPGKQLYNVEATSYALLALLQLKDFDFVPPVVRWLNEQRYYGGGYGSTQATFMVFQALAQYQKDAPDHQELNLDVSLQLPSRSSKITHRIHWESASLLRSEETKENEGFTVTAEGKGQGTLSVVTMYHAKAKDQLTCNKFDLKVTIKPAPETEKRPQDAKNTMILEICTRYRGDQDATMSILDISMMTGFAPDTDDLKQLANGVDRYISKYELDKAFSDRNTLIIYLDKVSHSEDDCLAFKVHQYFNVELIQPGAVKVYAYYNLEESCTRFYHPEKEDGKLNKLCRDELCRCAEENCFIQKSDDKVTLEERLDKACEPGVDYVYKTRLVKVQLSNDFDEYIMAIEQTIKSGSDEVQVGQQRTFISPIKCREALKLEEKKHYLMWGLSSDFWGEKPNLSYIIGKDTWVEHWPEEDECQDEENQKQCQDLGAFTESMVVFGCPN
uptake (cpm) [1] [cpm],uptake (cpm) [2] [cpm],percent of input taken up [2] [%],stoichiometry N (molecules P per molecule C3b) [2],Substance
10700,378,,,precursor properdin (pre-P) (from UniProt P27918 28-469) (natural protein)
,,< 1,< 10,activated properdin (P) (from UniProt P27918 28-469) (natural protein)
